Reference: US20230002496A1 (STAIDSON BEIJING BIOPHARMACEUTICALS, published 2023)

T1: human GM-CSFRα, full length on cells (human, UniProt P15509 23-400)
T1 sequence: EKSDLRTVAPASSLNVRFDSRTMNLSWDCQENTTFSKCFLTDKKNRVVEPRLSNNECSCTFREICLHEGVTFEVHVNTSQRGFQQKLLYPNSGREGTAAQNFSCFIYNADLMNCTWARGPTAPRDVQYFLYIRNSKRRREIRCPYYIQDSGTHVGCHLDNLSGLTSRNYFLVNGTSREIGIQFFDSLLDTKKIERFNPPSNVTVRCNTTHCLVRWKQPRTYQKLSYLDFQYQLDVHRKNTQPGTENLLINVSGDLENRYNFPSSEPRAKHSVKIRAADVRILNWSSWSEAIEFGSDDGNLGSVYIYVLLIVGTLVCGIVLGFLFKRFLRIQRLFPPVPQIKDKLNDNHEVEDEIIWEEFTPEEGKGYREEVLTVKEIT


Target: T1, human GM-CSFRα, full length on cells
Experiment: cell-based or functional assay

Binder | IC50, TF-1 cell proliferation [µg/mL]
E35-scFv LS31L (scFv, V domains shown) VH: QMQLVQSGAEVKKPGASVKVSCKVSGYTLTELSIHWVRQAPGKGLEWMGGFDPEDGETIYAQKFQGRVTMTGDTSTDTAYLELSSLRSEDTALYYCATGRYTSLATTYGFDYWGQGTLVTVSS VL: EIVMTQSPATLSLSPGERATLSCRASQSVSLYLAWYQQKPGQAPRLLIYGASSRATGIPDRFSGSGSGTDFTLTISRLEPEDFAVYYCQQYDNWPYTFGQGTKLEIK | 0.235
E35-scFv LS28V (scFv, V domains shown) VH: QMQLVQSGAEVKKPGASVKVSCKVSGYTLTELSIHWVRQAPGKGLEWMGGFDPEDGETIYAQKFQGRVTMTGDTSTDTAYLELSSLRSEDTALYYCATGRYTSLATTYGFDYWGQGTLVTVSS VL: EIVMTQSPATLSLSPGERATLSCRASQVVSSYLAWYQQKPGQAPRLLIYGASSRATGIPDRFSGSGSGTDFTLTISRLEPEDFAVYYCQQYDNWPYTFGQGTKLEIK | 0.104
E35-scFv LS28K (scFv, V domains shown) VH: QMQLVQSGAEVKKPGASVKVSCKVSGYTLTELSIHWVRQAPGKGLEWMGGFDPEDGETIYAQKFQGRVTMTGDTSTDTAYLELSSLRSEDTALYYCATGRYTSLATTYGFDYWGQGTLVTVSS VL: EIVMTQSPATLSLSPGERATLSCRASQKVSSYLAWYQQKPGQAPRLLIYGASSRATGIPDRFSGSGSGTDFTLTISRLEPEDFAVYYCQQYDNWPYTFGQGTKLEIK | 0.082
E35-scFv LS31I (scFv, V domains shown) VH: QMQLVQSGAEVKKPGASVKVSCKVSGYTLTELSIHWVRQAPGKGLEWMGGFDPEDGETIYAQKFQGRVTMTGDTSTDTAYLELSSLRSEDTALYYCATGRYTSLATTYGFDYWGQGTLVTVSS VL: EIVMTQSPATLSLSPGERATLSCRASQSVSIYLAWYQQKPGQAPRLLIYGASSRATGIPDRFSGSGSGTDFTLTISRLEPEDFAVYYCQQYDNWPYTFGQGTKLEIK | 0.681
E35-scFv LS28I (scFv, V domains shown) VH: QMQLVQSGAEVKKPGASVKVSCKVSGYTLTELSIHWVRQAPGKGLEWMGGFDPEDGETIYAQKFQGRVTMTGDTSTDTAYLELSSLRSEDTALYYCATGRYTSLATTYGFDYWGQGTLVTVSS VL: EIVMTQSPATLSLSPGERATLSCRASQIVSSYLAWYQQKPGQAPRLLIYGASSRATGIPDRFSGSGSGTDFTLTISRLEPEDFAVYYCQQYDNWPYTFGQGTKLEIK | 0.091
E35-scFv LS28L (scFv, V domains shown) VH: QMQLVQSGAEVKKPGASVKVSCKVSGYTLTELSIHWVRQAPGKGLEWMGGFDPEDGETIYAQKFQGRVTMTGDTSTDTAYLELSSLRSEDTALYYCATGRYTSLATTYGFDYWGQGTLVTVSS VL: EIVMTQSPATLSLSPGERATLSCRASQLVSSYLAWYQQKPGQAPRLLIYGASSRATGIPDRFSGSGSGTDFTLTISRLEPEDFAVYYCQQYDNWPYTFGQGTKLEIK | 0.067
E35-scFv LS28A (scFv, V domains shown) VH: QMQLVQSGAEVKKPGASVKVSCKVSGYTLTELSIHWVRQAPGKGLEWMGGFDPEDGETIYAQKFQGRVTMTGDTSTDTAYLELSSLRSEDTALYYCATGRYTSLATTYGFDYWGQGTLVTVSS VL: EIVMTQSPATLSLSPGERATLSCRASQAVSSYLAWYQQKPGQAPRLLIYGASSRATGIPDRFSGSGSGTDFTLTISRLEPEDFAVYYCQQYDNWPYTFGQGTKLEIK | 0.116
E35-scFv LS28R (scFv, V domains shown) VH: QMQLVQSGAEVKKPGASVKVSCKVSGYTLTELSIHWVRQAPGKGLEWMGGFDPEDGETIYAQKFQGRVTMTGDTSTDTAYLELSSLRSEDTALYYCATGRYTSLATTYGFDYWGQGTLVTVSS VL: EIVMTQSPATLSLSPGERATLSCRASQRVSSYLAWYQQKPGQAPRLLIYGASSRATGIPDRFSGSGSGTDFTLTISRLEPEDFAVYYCQQYDNWPYTFGQGTKLEIK | 0.077
E35-scFv LS31W (scFv, V domains shown) VH: QMQLVQSGAEVKKPGASVKVSCKVSGYTLTELSIHWVRQAPGKGLEWMGGFDPEDGETIYAQKFQGRVTMTGDTSTDTAYLELSSLRSEDTALYYCATGRYTSLATTYGFDYWGQGTLVTVSS VL: EIVMTQSPATLSLSPGERATLSCRASQSVSWYLAWYQQKPGQAPRLLIYGASSRATGIPDRFSGSGSGTDFTLTISRLEPEDFAVYYCQQYDNWPYTFGQGTKLEIK | 0.649
E35-scFv LS28P (scFv, V domains shown) VH: QMQLVQSGAEVKKPGASVKVSCKVSGYTLTELSIHWVRQAPGKGLEWMGGFDPEDGETIYAQKFQGRVTMTGDTSTDTAYLELSSLRSEDTALYYCATGRYTSLATTYGFDYWGQGTLVTVSS VL: EIVMTQSPATLSLSPGERATLSCRASQPVSSYLAWYQQKPGQAPRLLIYGASSRATGIPDRFSGSGSGTDFTLTISRLEPEDFAVYYCQQYDNWPYTFGQGTKLEIK | 0.089
E35-scFv LS28H (scFv, V domains shown) VH: QMQLVQSGAEVKKPGASVKVSCKVSGYTLTELSIHWVRQAPGKGLEWMGGFDPEDGETIYAQKFQGRVTMTGDTSTDTAYLELSSLRSEDTALYYCATGRYTSLATTYGFDYWGQGTLVTVSS VL: EIVMTQSPATLSLSPGERATLSCRASQHVSSYLAWYQQKPGQAPRLLIYGASSRATGIPDRFSGSGSGTDFTLTISRLEPEDFAVYYCQQYDNWPYTFGQGTKLEIK | 0.058
E35-scFv LS28W (scFv, V domains shown) VH: QMQLVQSGAEVKKPGASVKVSCKVSGYTLTELSIHWVRQAPGKGLEWMGGFDPEDGETIYAQKFQGRVTMTGDTSTDTAYLELSSLRSEDTALYYCATGRYTSLATTYGFDYWGQGTLVTVSS VL: EIVMTQSPATLSLSPGERATLSCRASQWVSSYLAWYQQKPGQAPRLLIYGASSRATGIPDRFSGSGSGTDFTLTISRLEPEDFAVYYCQQYDNWPYTFGQGTKLEIK | 0.06

Second part, the binder after the results:

IC50, TF-1 cell proliferation [µg/mL] | Binder
0.12 | E35-scFv (scFv, V domains shown) VH: QMQLVQSGAEVKKPGASVKVSCKVSGYTLTELSIHWVRQAPGKGLEWMGGFDPEDGETIYAQKFQGRVTMTGDTSTDTAYLELSSLRSEDTALYYCATGRYTSLATTYGFDYWGQGTLVTVSS VL: EIVMTQSPATLSLSPGERATLSCRASQSVSSYLAWYQQKPGQAPRLLIYGASSRATGIPDRFSGSGSGTDFTLTISRLEPEDFAVYYCQQYDNWPYTFGQGTKLEIK
0.1 | E35-scFv LS28F (scFv, V domains shown) VH: QMQLVQSGAEVKKPGASVKVSCKVSGYTLTELSIHWVRQAPGKGLEWMGGFDPEDGETIYAQKFQGRVTMTGDTSTDTAYLELSSLRSEDTALYYCATGRYTSLATTYGFDYWGQGTLVTVSS VL: EIVMTQSPATLSLSPGERATLSCRASQFVSSYLAWYQQKPGQAPRLLIYGASSRATGIPDRFSGSGSGTDFTLTISRLEPEDFAVYYCQQYDNWPYTFGQGTKLEIK
0.088 | E35-scFv LS28T (scFv, V domains shown) VH: QMQLVQSGAEVKKPGASVKVSCKVSGYTLTELSIHWVRQAPGKGLEWMGGFDPEDGETIYAQKFQGRVTMTGDTSTDTAYLELSSLRSEDTALYYCATGRYTSLATTYGFDYWGQGTLVTVSS VL: EIVMTQSPATLSLSPGERATLSCRASQTVSSYLAWYQQKPGQAPRLLIYGASSRATGIPDRFSGSGSGTDFTLTISRLEPEDFAVYYCQQYDNWPYTFGQGTKLEIK
0.154 | E35-scFv LS28Q (scFv, V domains shown) VH: QMQLVQSGAEVKKPGASVKVSCKVSGYTLTELSIHWVRQAPGKGLEWMGGFDPEDGETIYAQKFQGRVTMTGDTSTDTAYLELSSLRSEDTALYYCATGRYTSLATTYGFDYWGQGTLVTVSS VL: EIVMTQSPATLSLSPGERATLSCRASQQVSSYLAWYQQKPGQAPRLLIYGASSRATGIPDRFSGSGSGTDFTLTISRLEPEDFAVYYCQQYDNWPYTFGQGTKLEIK
1.34 | E35-scFv LS31D (scFv, V domains shown) VH: QMQLVQSGAEVKKPGASVKVSCKVSGYTLTELSIHWVRQAPGKGLEWMGGFDPEDGETIYAQKFQGRVTMTGDTSTDTAYLELSSLRSEDTALYYCATGRYTSLATTYGFDYWGQGTLVTVSS VL: EIVMTQSPATLSLSPGERATLSCRASQSVSDYLAWYQQKPGQAPRLLIYGASSRATGIPDRFSGSGSGTDFTLTISRLEPEDFAVYYCQQYDNWPYTFGQGTKLEIK
0.279 | E35-scFv LS31G (scFv, V domains shown) VH: QMQLVQSGAEVKKPGASVKVSCKVSGYTLTELSIHWVRQAPGKGLEWMGGFDPEDGETIYAQKFQGRVTMTGDTSTDTAYLELSSLRSEDTALYYCATGRYTSLATTYGFDYWGQGTLVTVSS VL: EIVMTQSPATLSLSPGERATLSCRASQSVSGYLAWYQQKPGQAPRLLIYGASSRATGIPDRFSGSGSGTDFTLTISRLEPEDFAVYYCQQYDNWPYTFGQGTKLEIK
0.111 | E35-scFv LS28E (scFv, V domains shown) VH: QMQLVQSGAEVKKPGASVKVSCKVSGYTLTELSIHWVRQAPGKGLEWMGGFDPEDGETIYAQKFQGRVTMTGDTSTDTAYLELSSLRSEDTALYYCATGRYTSLATTYGFDYWGQGTLVTVSS VL: EIVMTQSPATLSLSPGERATLSCRASQEVSSYLAWYQQKPGQAPRLLIYGASSRATGIPDRFSGSGSGTDFTLTISRLEPEDFAVYYCQQYDNWPYTFGQGTKLEIK
0.832 | E35-scFv LS31E (scFv, V domains shown) VH: QMQLVQSGAEVKKPGASVKVSCKVSGYTLTELSIHWVRQAPGKGLEWMGGFDPEDGETIYAQKFQGRVTMTGDTSTDTAYLELSSLRSEDTALYYCATGRYTSLATTYGFDYWGQGTLVTVSS VL: EIVMTQSPATLSLSPGERATLSCRASQSVSEYLAWYQQKPGQAPRLLIYGASSRATGIPDRFSGSGSGTDFTLTISRLEPEDFAVYYCQQYDNWPYTFGQGTKLEIK
